Data from article PMC3368264.

Biological target: Leishmania major N5,N10-methylenetetrahydrofolate dehydrogenase/cyclohydrolase (Leishmania major (Friedlin strain))
Test: SEC; Superdex 200 26/60 in buffer A (50 mM Tris-HCl, 250 mM NaCl, 20 mM imidazole, pH 7.5); main peak at approximately 65 kDa (subunit 31.9 kDa)

Leishmania major N5,N10-methylenetetrahydrofolate dehydrogenase/cyclohydrolase (enzyme)
stoichiometry N: 2
